Assay [1] addresses T1, huNav1.7α + β1-β2-β3 (human, UniProt Q15858 1-1988; A5A6L6 19-218; O60939 30-215; Q2KI11 23-215).
T1 construct: also called huNav1.7-beta1-beta2-beta3; huNav1.7-β1-β2-β3
Description: binding FACS, CHO FlpIn. In outline: (§1)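 Cells at 1×10^5 per well incubated 30 min at 4 °C with purified FLAG3-tagged ISVD in FACS buffer (PBS, 10% FBS, NaN₃); bound ISVD detected via murine anti-Flag by flow cytometry, dead cells excluded with 1 μg/mL propidium iodide.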

Assay [2] deals with T2, rhNav1.7α + β1-β2-β3 (rhesus monkey).
T2 construct: also called rhNav1.7-beta1-beta2-beta3; rhNav1.7-β1-β2-β3
Description: binding FACS, CHO FlpIn. In outline:
as §1

Assay [3] concerns the target T1, huNav1.7α + β1-β2-β3. Kind of assay: binding FACS, CHO FlpIn. As to the method:
(§2) Binding of the ISVDs to cell-expressed Nav1.7α was detected via murine anti-Flag (Sigma, catalog #F1804). Briefly, cells were resuspended in FACS buffer (PBS, 10% FBS, NaN₃) and transferred to a 96-well V-bottom plate at 1×10^5 cells/well. Purified FLAG3-tagged ISVD was diluted in FACS buffer and added to the cells for 30 minutes at 4° C. […] Prior to the read-out, the samples were resuspended in 1 μg/mL propidium iodide (Sigma, catalog #P4170) to exclude dead cells. Between each step, the cells were centrifuged for 5 minutes at 200 grams and washed with 100 μL/well FACS buffer.
The source holds these as a separate data set.

The target of assay [4] is T2, rhNav1.7α + β1-β2-β3. Description: binding FACS, CHO FlpIn. As to the method: as §2
The source holds these as a separate data set.

For assay [5], the target named is T3, muNav1.7α (murine, UniProt Q62205 1-1984).
T3 construct: HEK JmpIn cells; also called murine Nav1.7α
Kind of assay: binding FACS, HEK JmpIn. The method, boiled down: as §1

The target of assay [6] is huNav1.7α + β1 (human). Description: cell-based or functional assay.
For assay [7], the target named is T2, rhNav1.7α + β1-β2-β3. Kind of assay: cell-based or functional assay.
The target in assay [8] is T3, muNav1.7α. Description: binding FACS, HEK JmpIn. This is another data set of the same source.
Assay [9] has as its target T4, huNav157 chimera 14 + β1-β2-β3 (human).
T4 construct: Chimera of huNav1.7α (extracellular loops and transmembrane helices) and huNav1.5α (intracellular loops); also called Nav157ch14-β1-β2-β3; huNav157 chimera 14-beta1-beta2-beta3
Description: binding FACS, HEK FlpIn cells.

For assay [10], the target named is T5, huNav157 chimera 14 (human).
T5 construct: Chimera without β subunits; also called Nav157ch14
Kind of assay: binding FACS, HEK FlpIn cells.

Assay [11] concerns the target T6, huNav1.7α + β1 (human Nav1.7α co-expressed with Navβ1) (human, UniProt Q15858 1-1988; Q07699 19-218).
T6 construct: also called HEK293 human Nav1.7α + β1; HEKa/β1 Nav1.7α
Description: binding FACS, HEKa/β1 cells.

The target in assay [12] is T4, huNav157 chimera 14 + β1-β2-β3. Kind of assay: binding FACS, HEK FlpIn cells. This is another data set of the same source.
The target of assay [13] is T5, huNav157 chimera 14. Kind of assay: binding FACS, HEK FlpIn cells. This is another data set of the same source.
Assay [14] concerns the target T6, huNav1.7α + β1 (human Nav1.7α …). Kind of assay: cell-based or functional assay.
In assay [15] the target is T7, huNav1.7α (human Nav1.7 alpha subunit, expressed without β subunits) (human, UniProt Q15858 1-1988).
T7 construct: also called HEK293 human Nav1.7α; HEKa Nav1.7α
Description: binding FACS, HEKa cells.

Assay [16] addresses T7, huNav1.7α (human Nav1.7 alpha subunit, …). Kind of assay: binding FACS, HEKa cells. This is another data set of the same source.
Assay [17] addresses T6, huNav1.7α + β1 (human Nav1.7α …). Kind of assay: binding FACS, HEKa/β1 cells. The source holds these as a separate data set.
For assay [18], the target named is T7, huNav1.7α (human Nav1.7 alpha subunit, …). Kind of assay: binding FACS, huNav1.7α without β; minus = lower than reference.
Assay [19] shares this target. Kind of assay: binding FACS, huNav1.7α without β; minus = weaker than reference.
The target of assay [20] is T8, ratNav1.7α (rat, UniProt O08562 1-1984). Kind of assay: cell-based or functional assay.
The target of assay [21] is huNav1.7α + β1 (human). Description: cell-based or functional assay. This is another data set of the same source.
Assay [22] concerns the target T2, rhNav1.7α + β1-β2-β3. Kind of assay: cell-based or functional assay. This is another data set of the same source.
Assay [23] has as its target T9, huNav1.7α + β1 (human).
T9 construct: HEK293 cells; also called huNav1.7-beta1; huNav1.7-β1
Description: binding FACS, HEK.

Assay [24] has as its target T10, huNav1.7α (human, UniProt Q15858 1-1988).
T10 construct: HEK cells expressing the α subunit without β subunits; also called huNav1.7 (alpha-subunit); Human Nav1.7α
Description: binding FACS, HEK.

Assay [25] deals with T9, huNav1.7α + β1. Description: cell-based or functional assay. The source holds these as a separate data set.
The target of assay [26] is T2, rhNav1.7α + β1-β2-β3. Kind of assay: cell-based or functional assay. The source holds these as a separate data set.
Assay [27] deals with T8, ratNav1.7α. Kind of assay: cell-based or functional assay. The source holds these as a separate data set.
Assay [28] deals with T9, huNav1.7α + β1. Kind of assay: cell-based or functional assay. The source holds these as a separate data set.
The target of assay [29] is T2, rhNav1.7α + β1-β2-β3. Kind of assay: cell-based or functional assay. This is another data set of the same source.
Assay [30] concerns the target T9, huNav1.7α + β1. Description: cell-based or functional assay. The source holds these as a separate data set.
Assay [31] concerns the target T2, rhNav1.7α + β1-β2-β3. Kind of assay: cell-based or functional assay. This is another data set of the same source.
For assay [32], the target named is T9, huNav1.7α + β1. Description: cell-based or functional assay. The source holds these as a separate data set.
Assay [33] has as its target T2, rhNav1.7α + β1-β2-β3. Description: cell-based or functional assay. This is another data set of the same source.
Assay [34] has as its target T11, rhNav1.7α + β1-β2-β3 (rhesus Nav1.7α co-expressed with Navβ1, Navβ2 and Navβ3 on cells) (rhesus monkey (α subunit); β subunits …). Description: cell-based or functional assay.
Assay [35] deals with huNav1.7α + β1 on HEK cells (human, UniProt Q15858 1-1988; Q07699 19-218). Description: cell-based or functional assay.
Assay [36] deals with T11, rhNav1.7α + β1-β2-β3 (rhesus Nav1.7α …). Description: binding FACS, CHO FlpIn cells. As to the method: as §2
Assay [37] deals with T12, huNav1.7α + β1-β2-β3 (human Nav1.7α co-expressed with human Navβ1, Navβ2 and Navβ3 on cells) (human).
T12 construct: also called huNav1.7-beta1-beta2-beta3; CHO FlpIn huNav1.7α + β1-β2-β3
Kind of assay: binding FACS, CHO FlpIn cells. On the procedure: as §2

Assay [38] addresses T11, rhNav1.7α + β1-β2-β3 (rhesus Nav1.7α …). Description: binding FACS, CHO FlpIn cells. In outline: as §1
This is another data set of the same source.

Assay [39] concerns the target T12, huNav1.7α + β1-β2-β3 (human Nav1.7α …). Kind of assay: binding FACS, CHO FlpIn cells. In outline:
as §1
This is another data set of the same source.

Like-named read-outs stand apart in the source and are kept apart here.

T8 sequence (O08562 whole entry): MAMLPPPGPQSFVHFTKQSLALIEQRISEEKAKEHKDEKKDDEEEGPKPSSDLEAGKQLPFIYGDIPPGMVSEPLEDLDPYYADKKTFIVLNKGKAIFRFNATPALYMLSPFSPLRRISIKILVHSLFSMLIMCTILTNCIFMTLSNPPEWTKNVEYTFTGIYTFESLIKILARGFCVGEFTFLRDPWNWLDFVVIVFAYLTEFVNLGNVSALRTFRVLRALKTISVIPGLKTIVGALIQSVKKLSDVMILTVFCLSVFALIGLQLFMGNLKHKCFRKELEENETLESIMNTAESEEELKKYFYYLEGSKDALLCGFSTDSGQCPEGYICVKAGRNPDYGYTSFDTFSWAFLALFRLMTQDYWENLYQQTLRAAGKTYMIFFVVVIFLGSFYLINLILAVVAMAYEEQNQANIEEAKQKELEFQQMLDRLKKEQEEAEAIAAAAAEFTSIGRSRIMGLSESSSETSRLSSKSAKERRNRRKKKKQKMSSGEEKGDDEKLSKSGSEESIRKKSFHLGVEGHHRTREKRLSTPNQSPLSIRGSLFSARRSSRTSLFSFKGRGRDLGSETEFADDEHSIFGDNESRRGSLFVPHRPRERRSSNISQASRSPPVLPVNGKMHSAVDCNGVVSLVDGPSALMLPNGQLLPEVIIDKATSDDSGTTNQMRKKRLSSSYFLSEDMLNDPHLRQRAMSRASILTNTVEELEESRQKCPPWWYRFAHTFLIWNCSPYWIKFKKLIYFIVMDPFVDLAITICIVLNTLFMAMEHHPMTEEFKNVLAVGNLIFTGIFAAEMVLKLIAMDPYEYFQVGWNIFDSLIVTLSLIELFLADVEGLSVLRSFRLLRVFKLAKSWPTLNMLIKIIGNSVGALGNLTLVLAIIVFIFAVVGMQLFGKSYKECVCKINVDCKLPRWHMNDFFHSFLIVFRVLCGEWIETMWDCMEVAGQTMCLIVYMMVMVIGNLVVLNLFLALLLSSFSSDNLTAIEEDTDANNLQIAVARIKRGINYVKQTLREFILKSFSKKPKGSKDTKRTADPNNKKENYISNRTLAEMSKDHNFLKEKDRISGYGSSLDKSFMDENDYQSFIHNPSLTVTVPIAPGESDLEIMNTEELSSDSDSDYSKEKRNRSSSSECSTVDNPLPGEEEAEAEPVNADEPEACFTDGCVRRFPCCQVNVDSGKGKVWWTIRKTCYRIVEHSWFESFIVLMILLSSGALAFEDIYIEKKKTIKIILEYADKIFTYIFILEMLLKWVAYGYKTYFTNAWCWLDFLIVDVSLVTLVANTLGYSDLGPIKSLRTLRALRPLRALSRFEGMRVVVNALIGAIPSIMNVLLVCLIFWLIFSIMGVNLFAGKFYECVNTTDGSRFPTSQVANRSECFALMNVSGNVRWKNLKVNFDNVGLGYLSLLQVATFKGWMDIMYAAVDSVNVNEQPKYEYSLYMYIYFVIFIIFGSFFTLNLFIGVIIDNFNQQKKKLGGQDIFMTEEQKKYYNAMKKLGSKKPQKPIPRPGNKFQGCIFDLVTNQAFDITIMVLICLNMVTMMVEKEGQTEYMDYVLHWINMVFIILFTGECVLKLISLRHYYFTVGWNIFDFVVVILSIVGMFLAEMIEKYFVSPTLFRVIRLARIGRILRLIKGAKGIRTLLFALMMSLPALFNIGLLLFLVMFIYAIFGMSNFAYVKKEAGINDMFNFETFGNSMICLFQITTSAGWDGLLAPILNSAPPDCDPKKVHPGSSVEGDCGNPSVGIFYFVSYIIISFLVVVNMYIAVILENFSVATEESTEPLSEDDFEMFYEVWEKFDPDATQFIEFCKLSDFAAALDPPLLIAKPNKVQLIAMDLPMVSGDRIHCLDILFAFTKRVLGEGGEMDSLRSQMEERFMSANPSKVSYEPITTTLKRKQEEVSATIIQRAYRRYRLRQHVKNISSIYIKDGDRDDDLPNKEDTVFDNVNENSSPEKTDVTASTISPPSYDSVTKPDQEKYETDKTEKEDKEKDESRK

B1: F0103464B09 (parental)-FLAG-HIS6 (VHH)
VHH: EVQLVESGGGLVQPGGSLRLSCATTSRAFIRDVFTGWYRRVPGKERELVARIYNGGNTNYADFAKGRFSISRDNAKKMVTLRMSNLKPEDTGVYYCLFSGTINTGREYRSGDYWGQGTLVTVSS
notes: also called F010346B09
Broadly, the EC50 is the concentration that produces a half-maximal response. Consider B1, for which the results for the Bmax in assay [1], in assay [2] and in assay [5] were 99%, 33% and 74%, respectively. Also, the EC50 in [1] amounted to 5.2 nM; in [2], 18 nM; in assay [3], 5.2 nM; in assay [4], 18 nM; in assay [5] it was 6.3 nM; in [8], 6.3 nM. Moreover, the “Qpatch IC50” value in [6] was found to be 7 nM; in [7] it was 166 nM.

B2: F010302391 (VHH)
VHH: EVQLVESGGGVVQPGGSLRLSCAASGRILRIGYMRWYRQAPGKQREFVARITGGSATGYADSVKGRFTISRDNAKNTVYLQMNSLRPEDTALYYCEALVTASVRGGSIHSGTYWGQGTLVTVSS
notes: also called F0103387G05(L11V, A14P, D23A, H37Y, G40A, A41P, D53G, D54G, D58G, N82bS, N83R, V89L, R105Q)-FLAG3-HIS6
In the case of B2, the EC50 in assay [9] was 2.3 nM; in assay [10], 2.7 nM; in [11], 2 nM; in [12], 2.3 nM; in assay [13], 2.7 nM; in [15], 1.9 nM. Moreover, the EC50 in assay [16] was determined as 1.9 nM; in [17], 2 nM. The Bmax in [13] and in assay [16] was 100% in each case. Further, the “IC50 [M], electrophysiology on HEK huNav1.7α + β1 cells” value in assay [14] worked out at 3.2e-08 M.

B3: F010301648 (VHH)
VHH: EVQLVESGGGVVQPGGSLRLSCDASGRILRIGYMRWHRQGAGKQREFVARITDDSATDYADSVKGRFTISRDNAKNTVYLQMNSLRPEDTALYYCNALVTASVRGGSIHSGTYWGQGTLVTVSS
notes: also called F0103387G05(L11V, A14P, N82bS, N83R, V89L, E93N, R105Q); E93N
Consider B3, for which, in [18], the “Bmax fold change compared to reference” value was -4 fold. Moreover, the EC50 in assay [12] came to 3.4 nM; in assay [13] it was 210 nM; in assay [16], 89 nM; in assay [17], 3.2 nM. Besides, the Bmax was determined as 30% in [13] and 25% in assay [16]. Further, the “EC50 fold change compared to reference” value in [19] was -20 fold.

B4: 69AVB (Fc fusion)
chain: EVQLVESGGGLAQPGGSLRLSCAASGPVFNINRMAWYRRAPGKQRELVAYVTPTGDISYTDSVKGRFTISRDGSKRWSLQMNSLTPEDTAVYYCRALLQPDSYSNTRTYWGQGTLVTVSS
notes: also called F010301656-5GS-Fc; F10301656* (ISVD with human IgG1 Fc); not shown: 5GS linker; human IgG1 Fc
With B4, the “Qpatch IC50” value in [20] is 21 nM; in assay [21], 13 nM; in assay [22], 8 nM. Moreover, the EC50 in assay [23] was found to be 9 nM; in [24] it was 11 nM. Moreover, the “Qpatch IC50 [M], HEK cells” value in assay [25] is 1.3e-08 M; in assay [26], 8e-09 M. Moreover, the figures for the “QPatch electrophysiology IC50 [M], HEK cells” value in assay [27], in assay [28] and in assay [29] were 2.1e-08 M, 1.3e-08 M and 8e-09 M, respectively. Besides, the “Human SA ratio of QPatch IC50” value in assay [28] worked out at 2. In addition, the “QPatch electrophysiology IC50 [M], HEK cells, + 10 µM human SA” value in assay [28] was 2.6e-08 M.

B5: F010302363 (VHH)
VHH: EVQLVESGGGVVQPGGSLRLSCAASHRAFIRDVFTGWYRQAPGKQRELVARIYEGGNTQYADSVKGRFTISRDNAKKTVYLQMNSLRPEDTALYYCLFSGTISTGREYRSGDYWGQGTLVTVSS
Turning to B5, the Bmax in assay [1] was 100%; in assay [2], 96%; in assay [5] it was 18%. The EC50 in [1] was found to be 4.2 nM; in assay [2], 9.3 nM; in [3] it was 4.2 nM; in assay [4] it was 9.3 nM; in [5], 48 nM; in assay [8] it was 48 nM. Also, the “IC50 [M], electrophysiology, HEK cells” value in assay [30] worked out at 1.1e-08 M; in [31] it was 3.6e-08 M. The results for the “Qpatch IC50” value in assay [32] and in assay [33] were 7 nM and 166 nM, respectively.

B6: F010302383 (VHH)
VHH: EVQLVESGGGVVQPGGSLRLSCAASGPVFNINRMAWYRQAPGKQRELVAYVTPTGDISYADSVKGRFTISRGGSKRVYLQMNSLRPEDTALYYCRALLQPSSYSGTRTYWGQGTLVTVSS
notes: also called F0103387G04(L11V, A12V, K33R, R39Q, S50Y, S56D, T60A, D72G, W78V, S79Y, T83R, V89L, N93R, D99S, N100cG) + FLAG3-HIS6
With B6, in assay [34], the “IC50 [M], in vitro electrophysiology, HEK rhNav1.7α + β1-β2-β3” value worked out at 3e-09 M. Besides, the “IC50 [M], in vitro electrophysiology, HEK huNav1.7α + β1” value in [35] was found to be 2.2e-08 M. The EC50 in assay [36] turned out to be 4.5 nM; in assay [37], 6.8 nM; in assay [38] it was 4.5 nM; in assay [39], 6.8 nM. Also, the Bmax in assay [38] and in assay [39] was 100% in each case.

These data come from patent US20240002497A1 (Merck Sharp & Dohme, published 2024).
